The source of these data is paper PMC4066849 (Structure (London, England : 1993), 2014).

The data set deals with the molecule itself. Kind of data set: crystal structure.

B1: MiD51Δ1–133 (domain or fragment, mouse, UniProt Q8BGV8 134-463, looked up)
chain: SLQEKLLSYYRNRAAIPAGEQARAKQAAVDICAELRSFLRAKLPDMPLRDMYLSGSLYDDLQVVTADHIQLIVPLVLEQNLWSCIPGEDTIMNVPGFFLVRRENPEYFPRGSSYWDRCVVGGYLSPKTVADTFEKVVAGSINWPAIGSLLDYVIRPAPPPEALTLEVQYEKDKHLVIDFLPSVTLGDTVLVARPHRLAQYDNLWRLSLRPAETARLRALDQADSGCRSLCLKILKAICKSTPALGHLTASQLTNVILHLAQEEADWSPDMLADRFLQALRGLISYLEAGVLPSALNPKVNLFAELTPQEIDELGYTLYCSLSEPEVLLQT
Usually stoichiometry N stands for the number of molecules, sites or subunits per partner or assembly. As for B1, the “stoichiometry N” value stood at 2.

B2: MiD51 H201A mutant (MiD51Δ1–133 H201A) (domain or fragment, mouse, UniProt Q8BGV8 134-463, looked up)
chain: SLQEKLLSYYRNRAAIPAGEQARAKQAAVDICAELRSFLRAKLPDMPLRDMYLSGSLYDDLQVVTADAIQLIVPLVLEQNLWSCIPGEDTIMNVPGFFLVRRENPEYFPRGSSYWDRCVVGGYLSPKTVADTFEKVVAGSINWPAIGSLLDYVIRPAPPPEALTLEVQYEKDKHLVIDFLPSVTLGDTVLVARPHRLAQYDNLWRLSLRPAETARLRALDQADSGCRSLCLKILKAICKSTPALGHLTASQLTNVILHLAQEEADWSPDMLADRFLQALRGLISYLEAGVLPSALNPKVNLFAELTPQEIDELGYTLYCSLSEPEVLLQT
With B2, the “stoichiometry N” value worked out at 2.
